Laboratory results as given in article PMC2702692.

Target: BSA-glycopolymer conjugate 10 (glycoprotein mimic 10) (bovine) (UniProt P02769)
Experiment: SPR

Sequence of UniProt P02769 (P02769 25-607): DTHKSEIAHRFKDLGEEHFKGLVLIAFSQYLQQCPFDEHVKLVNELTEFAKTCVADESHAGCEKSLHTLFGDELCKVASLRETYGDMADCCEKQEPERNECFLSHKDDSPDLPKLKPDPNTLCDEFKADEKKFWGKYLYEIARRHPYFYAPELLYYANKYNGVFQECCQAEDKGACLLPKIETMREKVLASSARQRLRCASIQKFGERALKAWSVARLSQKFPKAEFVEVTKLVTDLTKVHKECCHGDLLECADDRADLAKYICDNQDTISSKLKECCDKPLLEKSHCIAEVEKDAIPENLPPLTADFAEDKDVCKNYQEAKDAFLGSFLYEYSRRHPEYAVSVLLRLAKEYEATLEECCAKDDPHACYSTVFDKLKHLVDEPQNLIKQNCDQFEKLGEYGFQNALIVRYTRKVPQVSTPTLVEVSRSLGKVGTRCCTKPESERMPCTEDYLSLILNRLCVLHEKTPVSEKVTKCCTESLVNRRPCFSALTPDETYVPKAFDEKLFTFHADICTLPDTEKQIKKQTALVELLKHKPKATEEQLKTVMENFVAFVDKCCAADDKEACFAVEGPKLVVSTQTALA

koff: 0.00073 s⁻¹ | kon: 120000 M⁻¹ s⁻¹
Substance: recombinant rat mannose-binding lectin (MBL) (from UniProt P19999 18-238) (natural protein)
